# Laboratory results as given in patent US20260265393A1.
# pKd: −log10 of the molar value.
# What was measured:
# [1] = target: CD27-mFc (Kangdai) (human) (UniProt P26842); assay: competition ELISA: CD70 coated, CD27-mFc plus antibody dilutions; competitor CD70
# [2] = target: CD27-mFc (Kangdai) (human) (UniProt P26842); assay: competition ELISA: coated CD70 (1 ug/mL), CD27-mFc fixed at 4.3 ug/mL plus antibody dilution, HRP anti-mouse Fc detection; blocked ligand CD70 (Example 3.5)
# [3] = target: antigen CD27 (soluble, as used in the BLI and SPR experiments) (UniProt P26842); assay: BLI, antibody captured on AHC probe, CD27 in solution
# [4] = target: human CD27 (transmembrane protein) on the cell membrane (human) (UniProt P26842); assay: flow cytometry on CHO cells expressing human CD27
# [5] = target: human CD27 (transmembrane protein) on the cell membrane (human) (UniProt P26842); assay: flow cytometry on human PBMC, antibody 5 ug/mL, CD3 FITC-A against APC-A (Example 3.3); other quadrants printed: Q2-UL 16.97 %, Q2-LL 27.93 %, Q2-LR 8.25 %
# [6] = target: CD27-mFc (Kangdai) (human) (UniProt P26842); assay: ELISA on coated CD27-mFc (1 ug/mL), AP anti-human Fc detection, absorption at 405/490 nm (Example 15.2)
# [7] = target: CD27-mFc (Kangdai) (human) (UniProt P26842); assay: ELISA on coated CD27-mFc
# [8] = target: human CD27 (transmembrane protein) on the cell membrane (human) (UniProt P26842); assay: flow cytometry on human PBMC, antibody 5 ug/mL, CD19 PE-A against APC-A (Example 3.3); other quadrants printed: Q3-UL 15.04 %, Q3-LL 29.25 %, Q3-LR 51.11 %
# Sequence of human CD27 (transmembrane protein) on the cell membrane (human) (P26842 20-260): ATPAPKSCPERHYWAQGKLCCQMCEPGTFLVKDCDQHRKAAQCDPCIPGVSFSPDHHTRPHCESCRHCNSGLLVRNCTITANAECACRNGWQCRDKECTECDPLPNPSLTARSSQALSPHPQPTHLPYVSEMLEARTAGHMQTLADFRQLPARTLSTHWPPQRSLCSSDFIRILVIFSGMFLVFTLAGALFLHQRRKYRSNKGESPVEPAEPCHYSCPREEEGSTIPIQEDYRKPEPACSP
# Sequence of antigen CD27 (soluble, as used in the BLI and SPR experiments) (P26842 21-192 limits assumed): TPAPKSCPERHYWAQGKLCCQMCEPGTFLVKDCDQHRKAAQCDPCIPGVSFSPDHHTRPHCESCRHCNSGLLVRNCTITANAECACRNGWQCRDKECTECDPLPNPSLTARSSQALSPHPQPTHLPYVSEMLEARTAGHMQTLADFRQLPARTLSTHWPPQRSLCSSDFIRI
# Sequence of CD27-mFc (Kangdai) (human) (P26842 21-192 limits assumed): as above
substance,measurement,setting,value
CD27 monoclonal antibody Varlilumab (1F5),IC50,[1],1.31 µg/mL
same,IC50 (read off the curve),[2],1 µg/mL
same,pKd,[3],9.16
same,koff,[3],8.75e-05 s⁻¹
same,kon,[3],126000 M⁻¹ s⁻¹
same,EC50,[4],2.87 µg/mL
same,"Q2-UR, percent of gated cells that are CD3 FITC+ and APC+ (antibody-stained)",[5],46.9%
same,EC50,[6],0.032 µg/mL
same,EC50,[7],0.0381 µg/mL
same,"Q3-UR, percent of gated cells that are CD19 PE+ and APC+ (antibody-stained)",[8],4.6%
